Measured values: patent publication US20220162649A1, “NOVEL NUCLEIC ACID MODIFIERS” (THE BROAD INSTITUTE, INC., priority 2019, published 2022)
Changes are numbered by the printed parent chain. Numbers in names are those of the source.

B1: SaCas9 T787A: SaCas9 phosphate lock loop mutant (protein, UniProt J7RUA5 1-1053, looked up, variant T787A)
CRISPR-associated …: MKRNYILGLDIGITSVGYGIIDYETRDVIDAGVRLFKEANVENNEGRRSKRGARRLKRRRRHRIQRVKKLLFDYNLLTDHSELSGINPYEARVKGLSQKLSEEEFSAALLHLAKRRGVHNVNEVEEDTGNELSTKEQISRNSKALEEKYVAELQLERLKKDGEVRGSINRFKTSDYVKEAKQLLKVQKAYHQLDQSFIDTYIDLLETRRTYYEGPGEGSPFGWKDIKEWYEMLMGHCTYFPEELRSVKYAYNADLYNALNDLNNLVITRDENEKLEYYEKFQIIENVFKQKKKPTLKQIAKEILVNEEDIKGYRVTSTGKPEFTNLKVYHDIKDITARKEIIENAELLDQIAKILTIYQSSEDIQEELTNLNSELTQEEIEQISNLKGYTGTHNLSLKAINLILDELWHTNDNQIAIFNRLKLVPKKVDLSQQKEIPTTLVDDFILSPVVKRSFIQSIKVINAIIKKYGLPNDIIIELAREKNSKDAQKMINEMQKRNRQTNERIEEIIRTTGKENAKYLIEKIKLHDMQEGKCLYSLEAIPLEDLLNNPFNYEVDHIIPRSVSFDNSFNNKVLVKQEENSKKGNRTPFQYLSSSDSKISYETFKKHILNLAKGKGRISKTKKEYLLEERDINRFSVQKDFINRNLVDTRYATRGLMNLLRSYFRVNNLDVKVKSINGGFTSFLRRKWKFKKERNKGYKHHAEDALIIANADFIFKEWKKLDKAKKVMENQMFEEKQAESMPEIETEQEYKEIFITPHQIKHIKDFKDYKYSHRVDKKPNRELINDALYSTRKDDKGNTLIVNNLNGLYDKDNDKLKKLINKSPEKLLMYHHDPQTYQKLKLIMEQYGDEKNPLYKYYEETGNYLTKYSKKDNGPVIKKIKYYGNKLNAHLDITDDYPNSRNKVVKLSLKPYRFDVYLDNGVYKFVTVKNLDVIKKENYYEVNSKCYEEAKKLKKISNQAEFIASFYNNDLIKINGELYRVIGVNNDLLNRIEVNMIDITYREYLENMNDKRPPRIIKTIASKTQSIKKYSTDILGNLYEVKSKKHPQIIKKG
B2: N580A: SaCas9 HNH catalytic residue mutant (protein, UniProt J7RUA5 1-1053, looked up, variant N580A)
CRISPR-associated …: B1 CRISPR-associated … with N580A, A787T
B3: D556A: SaCas9 HNH catalytic residue mutant (protein, UniProt J7RUA5 1-1053, looked up, variant D556A)
CRISPR-associated …: B1 CRISPR-associated … with D556A, A787T
B4: E477A: SaCas9 RuvC catalytic residue mutant (protein, UniProt J7RUA5 1-1053, looked up, variant E477A)
CRISPR-associated …: B1 CRISPR-associated … with E477A, A787T
B5: H701A: SaCas9 RuvC catalytic residue mutant (protein, UniProt J7RUA5 1-1053, looked up, variant H701A)
CRISPR-associated …: B1 CRISPR-associated … with H701A, A787T
B6: D10A: SaCas9 RuvC catalytic residue mutant (protein, UniProt J7RUA5 1-1053, looked up, variant D10A)
CRISPR-associated …: B1 CRISPR-associated … with D10A, A787T
B7: H557A: SaCas9 HNH catalytic residue mutant (protein, UniProt J7RUA5 1-1053, looked up, variant H557A)
CRISPR-associated …: B1 CRISPR-associated … with H557A, A787T
B8: D704A: SaCas9 RuvC catalytic residue mutant (protein, UniProt J7RUA5 1-1053, looked up, variant D704A)
CRISPR-associated …: B1 CRISPR-associated … with D704A, A787T

System: target DNA
Assay: not given
Conditions: SaCas9 mutants; cited from earlier work

Row | Molecule | DNA cleavage activity, in words
1 | B1 | reduced DNA cleavage activity
2 | B2 | almost no DNA cleavage activities
3 | B3 | almost no DNA cleavage activities
4 | B4 | almost no DNA cleavage activities
5 | B5 | almost no DNA cleavage activities
6 | B6 | almost no DNA cleavage activities
7 | B7 | almost no DNA cleavage activities
8 | B8 | almost no DNA cleavage activities

System: NHEJ pathway
Assay: HiBiT assay of HDR enhancement by small-molecule NHEJ pathway inhibitors
Assay type: cell-based
Conditions: not given

Row | Molecule | HDR enhancement in the HiBiT assay
9 | CCN1CCN(CC(=O)Nc2ccc(-c3cccc4c(=O)cc(N5CCOCC5)oc34)c3sc4ccccc4c23)CC1 [KU-0060648] | enhanced HDR enhancement
10 | O=c1cc(N2CCOCC2)oc2c(-c3cccc4c3sc3ccccc34)cccc12 [KU-57788] | enhanced HDR enhancement
